Measured values: patent US20090176209A1 (DOMANTIS, published 2009)

T1: human TNF receptor, biotinylated (human, UniProt P19438 30-211, limits assumed, biotinylated)
T1 construct: Immobilised on streptavidin-coated tubes
T1 sequence (looked up): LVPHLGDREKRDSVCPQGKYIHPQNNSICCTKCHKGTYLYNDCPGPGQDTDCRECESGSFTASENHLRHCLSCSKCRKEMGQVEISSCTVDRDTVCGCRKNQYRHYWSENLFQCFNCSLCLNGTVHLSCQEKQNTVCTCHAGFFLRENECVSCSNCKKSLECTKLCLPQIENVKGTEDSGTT


Tests used:
[1] = molecular target: T2, β-galactosidase (Sigma), biotinylated (Escherichia coli (strain K12), UniProt P00722 2-1024 = β-galactosidase, Biotinylated (sites not given); the native enzyme is a homotetramer, and one chain is given); assay: method not stated
T2 construct: Immobilised on streptavidin-coated tubes or wells
T2 sequence (P00722 2-1024 limits assumed): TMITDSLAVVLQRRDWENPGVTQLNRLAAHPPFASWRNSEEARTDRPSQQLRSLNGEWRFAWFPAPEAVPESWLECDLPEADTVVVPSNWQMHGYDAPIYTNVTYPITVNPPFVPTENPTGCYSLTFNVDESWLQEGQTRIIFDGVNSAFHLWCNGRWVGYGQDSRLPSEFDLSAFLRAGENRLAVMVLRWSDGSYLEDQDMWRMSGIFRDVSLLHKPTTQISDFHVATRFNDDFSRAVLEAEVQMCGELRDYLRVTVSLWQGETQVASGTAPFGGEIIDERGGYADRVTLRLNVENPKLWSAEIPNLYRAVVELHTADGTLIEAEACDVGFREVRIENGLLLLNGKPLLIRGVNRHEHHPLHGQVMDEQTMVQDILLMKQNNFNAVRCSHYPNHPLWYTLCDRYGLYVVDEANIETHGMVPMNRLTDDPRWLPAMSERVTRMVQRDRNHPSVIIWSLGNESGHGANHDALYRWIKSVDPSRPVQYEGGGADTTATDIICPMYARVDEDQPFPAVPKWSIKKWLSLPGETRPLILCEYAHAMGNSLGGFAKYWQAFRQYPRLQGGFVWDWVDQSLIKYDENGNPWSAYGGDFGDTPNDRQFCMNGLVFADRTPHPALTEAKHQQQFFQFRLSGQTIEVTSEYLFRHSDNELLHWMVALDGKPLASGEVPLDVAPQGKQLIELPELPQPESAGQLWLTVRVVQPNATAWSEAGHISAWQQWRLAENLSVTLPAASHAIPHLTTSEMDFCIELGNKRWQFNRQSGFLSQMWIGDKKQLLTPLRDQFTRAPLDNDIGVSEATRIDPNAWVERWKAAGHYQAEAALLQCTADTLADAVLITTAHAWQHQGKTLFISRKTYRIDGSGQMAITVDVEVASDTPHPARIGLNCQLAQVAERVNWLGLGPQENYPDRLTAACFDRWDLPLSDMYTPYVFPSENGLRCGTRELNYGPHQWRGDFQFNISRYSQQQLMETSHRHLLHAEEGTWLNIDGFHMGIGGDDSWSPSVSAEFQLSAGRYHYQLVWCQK

[2] = molecular target: T3, BSA (Sigma), biotinylated (UniProt P02769 25-607); assay: protein-DNA complex captured on biotinylated protein in streptavidin-coated PCR tubes; co-captured DNA detected by PCR and gel
T3 construct: Negative control surface
T3 sequence (P02769 25-607 limits assumed): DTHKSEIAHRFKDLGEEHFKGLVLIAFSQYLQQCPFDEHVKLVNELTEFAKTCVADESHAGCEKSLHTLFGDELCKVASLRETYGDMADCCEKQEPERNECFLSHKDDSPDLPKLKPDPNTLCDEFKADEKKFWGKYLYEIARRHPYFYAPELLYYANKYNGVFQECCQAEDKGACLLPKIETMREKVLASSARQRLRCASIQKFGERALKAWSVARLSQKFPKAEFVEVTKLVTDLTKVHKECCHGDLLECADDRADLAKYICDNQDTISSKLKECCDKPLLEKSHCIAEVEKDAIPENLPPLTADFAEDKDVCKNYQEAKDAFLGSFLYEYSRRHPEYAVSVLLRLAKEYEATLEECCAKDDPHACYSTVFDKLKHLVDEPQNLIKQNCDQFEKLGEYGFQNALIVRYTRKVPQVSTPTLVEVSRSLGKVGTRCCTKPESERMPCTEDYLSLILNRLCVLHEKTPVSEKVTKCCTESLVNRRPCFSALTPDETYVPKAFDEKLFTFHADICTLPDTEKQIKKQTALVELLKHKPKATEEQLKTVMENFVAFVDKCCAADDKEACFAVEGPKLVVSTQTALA

[3] = molecular target: T4, protein A (Sigma), biotinylated (UniProt P38507 37-477); assay: as above
T4 construct: Immobilised on streptavidin-coated tubes; also called pA

[4] = molecular target: T1, human TNF receptor, biotinylated; assay: as above

| Binder | Kd [1] [nM] | binding result [2] | binding result [3] | binding result [4] |
| --- | --- | --- | --- | --- |
| anti-β-galactosidase Vκ domain antibody clone E5 (other, The Vκ single domain itself; also called Vκ(E5); Vk(E5)) VL: DIQMTQSPSSLSASVGDRVTITCRASQSVSSYLNWYQQKPGKAPKLLIYLASRLQSGVPSRFSGSGSGTDFTLTISSLQPEDFATYYCQQNWWLPPTFGQGTKVEIK | > 1000 |  |  |  |
| scArc expressed from pIE7aA, pIE7a2A, pIE7a3A or pIE7a4A (other, in vitro translated in the presence of 3F10 αHA mAb; also called scArc complex with DNA) MGSTGGAAAKEAAAKEAAAKEAAAKELAAKEAAAKEAAAKEAAAKELAAGSGGGSGGGHMKGMSKMPQFNLRWPREVLDLVRKVAEENGRSVNSEIYQRVMESFKKEGRIGAGGGSGGGSGGGSGGGHMKGMSKMPQFNLRWPREVLDLVRKVAEENGRSVNSEIYQRVMESFKKEGRIGAGGGSGGGSYPYDVPDYA |  | no binding | no binding |  |
| HA-tagged scArc repressor expressed from pIE2aA / pIE2a^2A-derived genetic elements (other, The same protein is encoded by pIE2A, pIE2aA and pIE2a^2A (they differ in the number of operators on the DNA); also called scArc-HA; pIE2-encoded scArc-HA) MGSTGGAAAGSGGGSGGGHMKGMSKMPQFNLRWPREVLDLVRKVAEENGRSVNSEIYQRVMESFKKEGRIGAGGGSGGGSGGGSGGGHMKGMSKMPQFNLRWPREVLDLVRKVAEENGRSVNSEIYQRVMESFKKEGRIGAGGGSGGGSYPYDVPDYA |  | no binding | no binding | no binding |
| HA-tagged scArc repressor expressed from pIE3A / pIE3aA-derived genetic elements (other, In vitro translated; differs from the pIE2 form in that the MCS-encoded region lies between scArc and the HA tag; also called pIE3-derived scArc-HA; scArc-HA) MSGSGGGSGGGHMKGMSKMPQFNLRWPREVLDLVRKVAEENGRSVNSEIYQRVMESFKKEGRIGAGGGSGGGSGGGSGGGHMKGMSKMPQFNLRWPREVLDLVRKVAEENGRSVNSEIYQRVMESFKKEGRIGAGGGSGGGSMGSTGGAAARSYPYDVPDYA |  | no binding |  |  |
| VH(DOM1h-10-27)-scArc fusion protein (pIE2aAVH(DOM1h-10-27)) (other, Human heavy chain VH domain antibody against human TNF receptor fused to scArc; in vitro translated, assayed as protein-DNA complex (one Arc operator), with the stabilising 3F10 mAb; also called VH(DOM1h-10-27) domain antibody fusion construct with scArc) MAEVQLLESGGGLVQPGGSLRLSCAASGFTFEWYWMGWVRQAPGKGLEWVSAISGSGGSTYYADSVKGRFTISRDNSKNTLYLQMNSLRAEDAAVYYCAKVKLGGGPNFGYRGQGTLVTVSSAAGGGSGGGHMKGMSKMPQFNLRWPREVLDLVRKVAEENGRSVNSEIYQRVMESFKKEGRIGAGGGSGGGSGGGSGGGHMKGMSKMPQFNLRWPREVLDLVRKVAEENGRSVNSEIYQRVMESFKKEGRIGAGGGSGGGSYPYDVPDYA |  | no binding |  |  |
